Reference: patent US20200392225A1 (Novartis, published 2020)

How the values were obtained:
[1] = biological target: T1, human NPR1 expressed on CHO-K1 cells (human, UniProt P16066 33-1061); assay: cell-based or functional assay
T1 sequence: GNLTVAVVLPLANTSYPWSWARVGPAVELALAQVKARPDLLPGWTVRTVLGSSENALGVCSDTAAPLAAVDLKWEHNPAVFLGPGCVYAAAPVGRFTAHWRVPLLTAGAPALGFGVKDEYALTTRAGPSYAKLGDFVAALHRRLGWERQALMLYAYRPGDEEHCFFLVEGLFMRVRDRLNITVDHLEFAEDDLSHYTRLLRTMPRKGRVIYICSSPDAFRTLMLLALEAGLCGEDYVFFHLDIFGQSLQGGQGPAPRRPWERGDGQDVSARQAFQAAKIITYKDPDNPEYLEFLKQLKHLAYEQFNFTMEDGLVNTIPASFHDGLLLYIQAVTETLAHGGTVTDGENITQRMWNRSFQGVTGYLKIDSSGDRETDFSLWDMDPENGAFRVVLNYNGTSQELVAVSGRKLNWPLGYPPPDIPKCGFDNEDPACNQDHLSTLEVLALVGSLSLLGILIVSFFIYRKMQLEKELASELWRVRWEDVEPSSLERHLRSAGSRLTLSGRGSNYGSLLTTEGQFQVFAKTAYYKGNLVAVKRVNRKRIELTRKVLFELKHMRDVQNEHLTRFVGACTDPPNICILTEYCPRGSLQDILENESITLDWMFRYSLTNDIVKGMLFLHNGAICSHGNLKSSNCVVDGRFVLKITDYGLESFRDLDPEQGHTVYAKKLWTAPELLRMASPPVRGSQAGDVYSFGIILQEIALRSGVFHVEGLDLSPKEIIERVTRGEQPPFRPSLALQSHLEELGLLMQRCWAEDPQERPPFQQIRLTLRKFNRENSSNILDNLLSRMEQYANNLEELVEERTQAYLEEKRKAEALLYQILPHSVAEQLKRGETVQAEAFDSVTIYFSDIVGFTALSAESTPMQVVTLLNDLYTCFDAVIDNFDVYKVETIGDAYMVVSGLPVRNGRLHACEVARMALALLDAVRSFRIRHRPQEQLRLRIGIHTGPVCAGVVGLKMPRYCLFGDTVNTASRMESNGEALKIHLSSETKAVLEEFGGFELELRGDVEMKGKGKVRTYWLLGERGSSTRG

[2] = biological target: T1, human NPR1 expressed on CHO-K1 cells; assay: cell-based or functional assay; remark: listed apart in the source

B1: WW01 FabCys (Fab, V domains shown)
VH: QVQLLESGGGLVQPGGSLRLSCAASGFTFNTHYIHWVRQAPGKGLEWVSSISGSGSNTYYADSVKGRFTISRDNSKNTLYLQMNSLRAEDTAVYYCARERGYVYYHMFDPWGQGTLVTVSS
VL: DIVLTQSPATLSLSPGERATLSCRASQSITRNYLAWYQQKPGQAPRLLIYGASSRATGIPARFSGSGSGTDFTLTISSLEPEDFAVYYCQQHSMYPRTFGQGTKVEIK
Q: For B1, which “cGMP conc [nM] at 2 uM FabCys, +0.075 nM ANP” value [1] is on record?
A: 121 nM

Q: And the “cGMP conc [nM] at 2 uM FabCys, without ANP” value [1]?
A: 30 nM

B2: WW06 FabCys (Fab, V domains shown)
VH: QVQLVQSGAEVKKPGESLKISCKGSGYSFTSYWIAWVRQMPGKGLEWMGRIDPDNSYTRYSPSFQGQVTISADKSISTAYLQWSSLKASDTAMYYCARWLSPGYALGEQPAGMDHWGQGTLVTVSS
VL: DIVLTQPPSVSGAPGQRVTISCTGSSSNIGAGYAVHWYQQLPGTAPKLLIYSNNKRPSGVPDRFSGSKSGTSASLAITGLQAEDEADYYCQSYDLQKSSRVFGGGTKLTVL
Q: How did the “cGMP conc [nM] at 2 uM FabCys, +0.075 nM ANP” value [1] turn out when B2 was run?
A: 251 nM

Q: And the “cGMP conc [nM] at 2 uM FabCys, without ANP” value [1]?
A: 281 nM

B3: YY01 FabCys (Fab, V domains shown)
VH: EVQLVESGGGLVQPGGSLRLSCAASGFTFSSYWISWVRQAPGKGLEWVANIKQSGSETYYVESVKGRFTISRDNAKNSLYLQMNSLRAEDTAVYYCARSLRRRSTEHAGFDVWGQGTLVTVSS
VL: DIQMTQSPSSLSASVGDRVTITCRASQGISNYLAWYQQKPGKVPKLLIYAASTLQSGVPSRFSGSGSGTDFTLTISSLQPEDVATYYCQQADKFPYTFGQGTKVEIK
Q: For B3, which “cGMP conc [nM] at 1 uM FabCys, +0.075 nM ANP” value [2] is on record?
A: 46 nM

Q: What about the “cGMP conc [nM] at 1 uM FabCys, without ANP” value [2] of the same binder?
A: 15 nM

B4: YY04 FabCys (Fab, V domains shown)
VH: EVQLVESGGGLVKPGGSLRLSCAASGFTFSNYWISWVRQAPGKGLEWVGRIKSKTYGGTTDYAEPVKGRFTISRDDSKNTLYLQMNSLKTEDTAVYYCAREKYSIRARGHGDYGFDVWGQGTLVTVSS
VL: DIQMTQSPSSLSASVGDRVTITCRASQGISNYLAWYQQKPGKVPKLLIYAASTLQSGVPSRFSGSGSGTDFTLTISSLQPEDVATYYCQQGYHAPFTFGQGTKVEIK
Q: With B4 as the binder, how does the “cGMP conc [nM] at 1 uM FabCys, +0.075 nM ANP” value [2] read?
A: 67 nM

Q: What about the “cGMP conc [nM] at 1 uM FabCys, without ANP” value [2] of the same binder?
A: 18 nM

B5: YY07 FabCys (Fab, V domains shown)
VH: EVQLVQSGAEVKKPGESLKISCKGSGYSFTSYWISWVRQMPGKGLEWMGIIYPGTSYTRYSPSFQGQVTISADKSISTAYLQWSSLKASDTAMYYCARGSLPGLLGFDHWGQGTLVTVSS
VL: QSVLTQPPSVSGAPGQRVTISCTGSSSNIGAGYDVHWYQQLPGTAPKLLIYGNSNRPNGVPDRFSGSKSGTSASLAITGLQAEDEADYYCQSYDSPTSSSVFGGGTKLTVL
Q: B5 was tested. Which “cGMP conc [nM] at 1 uM FabCys, +0.075 nM ANP” value [2] did it give?
A: 88 nM

Q: And the “cGMP conc [nM] at 1 uM FabCys, without ANP” value [2]?
A: 77 nM

B6: YY05 FabCys (Fab, V domains shown)
VH: EVQLVQSGAEVKKPGESLKISCKGSGYSFTSYWISWVRQMPGKGLEWMGIIYPGTSYTRYSPSFQGQVTISADKSISTAYLQWSSLKASDTAMYYCARGAVAGQLGFDHWGQGTLVTVSS
VL: QSVLTQPPSVSGAPGQRVTISCTGSSSNIGAGYDVHWYQQLPGTAPKLLIYGNSNRPSGVPDRFSGSKSGTSASLAITGLQAEDEADYYCQSYYTSSHGPVFGGGTKLTVL
Q: With B6 as the binder, how does the “cGMP conc [nM] at 1 uM FabCys, +0.075 nM ANP” value [2] read?
A: 227 nM

Q: And the “cGMP conc [nM] at 1 uM FabCys, without ANP” value [2]?
A: 207 nM
